Data on eight molecules can be found in US20170106084A1 (Hoffmann-La Roche, published 2017).

Positions count from the first letter of the chain named. Square brackets hold non-standard residues; d marks the D form. Ends that are not written are not given here. pS = N[C@@H](COP(=O)(O)O)C(=O)O Where only a bound is given, the exact number is not on record here.

The target of assay [1] is full length human tau S422A mutant (human, UniProt P10636 2-758). Nature of the assay: ELISA, coated antigen.
Assay [2] concerns the target T1, human tau(pS422) fragment SEQ ID NO: 03 (human, also: biotinylated).
T1 construct: also called phosphorylated tau peptide
T1 peptide: SIDMVD[pS]PQLATLAD
Nature of the assay: ELISA, coated antigen.

The target in assay [3] is T2, tau peptide residues 416 to 430 of SEQ ID NO: 01 (human, also: biotinylated, site not given here).
T2 construct: also called non-phosphorylated tau peptide
T2 peptide: SIDMVDSPQLATLAD
As to the kind of experiment: ELISA, coated antigen.

Assay [4] deals with T3, transferrin receptor on hCMEC/D3 cells (UniProt P02786 1-760, limits assumed).
T3 construct: whole, on cells; also called TfR
As to the kind of experiment: transwell assay on hCMEC/D3 cells, huFc ELISA.

Assay [5] concerns the target T3, transferrin receptor on hCMEC/D3 cells. As to the kind of experiment: transwell assay on hCMEC/D3 cells, huFc ELISA. This is another data set of the same source.
The target in assay [6] is T1, human tau(pS422) fragment SEQ ID NO: 03. As to the kind of experiment: ELISA, biotinylated peptide on streptavidin plate.
Method: (§1) Rabbit monoclonal antibodies were recombinantly expressed in HEK 293 cells. […] Coating with KLH or control peptides was performed at 1 μg/ml. […] After intensive washing, the binding of the rabbit antibodies was detected using a sheep anti-rabbit IgG digoxigenin conjugated detection antibody (Chemicon AQ301D). […] The antibody binding was characterized by its EC50 values. […] Cross-reactivity with KLH or MCAK phosphopeptide was estimated by single-point measurement at high concentrations, i.e. at 1:5 dilution of the cell culture supernatants.
Assay [7] deals with T2, tau peptide residues 416 to 430 of SEQ …. As to the kind of experiment: ELISA, biotinylated peptide on streptavidin plate.
Method: as §1
The target in assay [8] is T1, human tau(pS422) fragment SEQ ID NO: 03. Nature of the assay: ELISA, ratio of EC50 values.
Method: as §1
For assay [9], the target named is T4, MCAK_Human (88-102)[95-pSer] (human, UniProt Q99661 88-102, also: biotinylated, site not given here).
T4 construct: also called MCAK phosphopeptide
T4 peptide (looked up): IQKQKRR[pS]VNSKIPA
As to the kind of experiment: ELISA, single point.

The target of assay [10] is T3, transferrin receptor on hCMEC/D3 cells. Nature of the assay: transwell assay on hCMEC/D3 cells, IgG ELISA.
Method: We used brain endothelial cells (hCMEC/D3) to investigate cell binding and transcytosis of the shuttle modules as reported herein. […] Cell monolayers were washed at room temperature in serum-free medium apically (400 μl) and basolaterally (1600 μl) three times for 3-5 minutes each. All wash volumes were collected to monitor efficiency of removal of the unbound ligand or antibody. Pre-warmed medium was added to the apical chamber and the filters transferred to a fresh 12 well plate (blocked overnight with PBS containing 1% BSA) containing 1600 μl pre-warmed medium. At this point, cells were lysed in 500 μl RIPA buffer (Sigma, Munich, Germany, #R0278) in order to determine specific uptakes. The remaining filters were incubated at 37° C. and samples collected at various time points to determine apical and/or basolateral release. The content of antibody in the samples was quantified using a highly sensitive IgG ELISA.

T3 sequence (P02786 whole entry): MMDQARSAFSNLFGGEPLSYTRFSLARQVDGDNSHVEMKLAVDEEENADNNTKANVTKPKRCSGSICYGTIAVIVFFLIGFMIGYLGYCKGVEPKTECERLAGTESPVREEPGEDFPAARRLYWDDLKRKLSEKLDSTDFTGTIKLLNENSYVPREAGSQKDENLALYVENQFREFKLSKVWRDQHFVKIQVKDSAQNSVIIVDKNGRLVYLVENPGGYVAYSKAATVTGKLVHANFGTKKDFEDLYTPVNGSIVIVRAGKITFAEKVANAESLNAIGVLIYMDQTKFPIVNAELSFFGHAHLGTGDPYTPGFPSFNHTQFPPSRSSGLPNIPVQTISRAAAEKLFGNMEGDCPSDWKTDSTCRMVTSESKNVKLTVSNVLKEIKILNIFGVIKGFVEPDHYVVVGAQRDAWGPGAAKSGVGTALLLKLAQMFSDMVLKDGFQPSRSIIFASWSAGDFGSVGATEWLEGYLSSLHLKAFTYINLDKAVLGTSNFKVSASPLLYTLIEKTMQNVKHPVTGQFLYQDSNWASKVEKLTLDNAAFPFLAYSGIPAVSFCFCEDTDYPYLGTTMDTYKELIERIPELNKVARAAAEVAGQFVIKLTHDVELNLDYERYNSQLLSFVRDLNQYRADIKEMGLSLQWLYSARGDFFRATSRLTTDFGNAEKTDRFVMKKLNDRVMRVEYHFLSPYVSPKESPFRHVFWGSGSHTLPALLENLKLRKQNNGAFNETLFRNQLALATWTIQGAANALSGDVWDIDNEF
Sequence of full length human tau S422A mutant (P10636 other isoform, or with tags, fused parts or gaps S422A S422A limits assumed): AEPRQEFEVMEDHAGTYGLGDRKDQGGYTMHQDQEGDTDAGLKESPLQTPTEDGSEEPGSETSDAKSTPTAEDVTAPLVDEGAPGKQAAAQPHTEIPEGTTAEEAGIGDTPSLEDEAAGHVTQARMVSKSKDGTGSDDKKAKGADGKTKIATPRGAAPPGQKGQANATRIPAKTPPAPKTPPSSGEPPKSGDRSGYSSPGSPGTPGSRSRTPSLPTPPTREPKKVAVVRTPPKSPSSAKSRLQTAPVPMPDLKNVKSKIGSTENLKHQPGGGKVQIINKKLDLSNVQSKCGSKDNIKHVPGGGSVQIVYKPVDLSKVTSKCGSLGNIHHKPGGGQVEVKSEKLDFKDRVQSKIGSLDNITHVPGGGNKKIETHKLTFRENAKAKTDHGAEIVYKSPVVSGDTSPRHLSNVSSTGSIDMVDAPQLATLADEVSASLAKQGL

B1: VH32/VL21 (antibody, V domains shown)
VH: EVQVLESGGGLVQPGGSLRLSCAVSGFSLSSNAINWVRQAPGKGLEWVGYIAVSGNTYYASWAKGRFTISRDNSKNTVYLQMNSLRAEDTAVYYCGKSNIWGQGTLVTVSS
VL: AQVMTQSPSSLSASVGDRVTITCRSSQSVRTNKLAWFQQKPGQPPKRLIYSASTLDFGVPSRFSGSGSGTEFTLTISSLQPEDFATYYCLGYFDSSADIVAFGGGTKVEIK
notes: full size IgG; kappa (59) or lambda (60) light constant not specified
Turning to B1, the EC50 came to 0.0215 µg/mL in [1], 0.0044 µg/mL in assay [2] and 0.634 µg/mL in assay [3].

B2: VH32/VL22 (antibody, V domains shown)
VH: B1 VH
VL: B1 VL with K33R, F57Y
notes: as for B1
Take B2: the EC50 in assay [1] was determined as 0.0174 µg/mL; in [3], 0.048 µg/mL.

B3: anti-TfR1 antibody (TfR1) (antibody, V domains shown)
VH: EVQLQQSGPELVKPGASMKISCKASGYSFTGYTMNWVKQSHGENLEWIGRINPHNGGTDYNQKFKDKAPLTVDKSSNTAYMELLSLTSEDSAVYYCARGYYYYSLDYWGQGTSVTVSS
VL: QIVLTQSPAIMSASPGEKVTMTCSASSSIRYIHWYQQRPGTSPKRWIYDTSNLASGVPARFSGSGSGTSYSLTISSMEAEDAATYYCHQRNSYPWTFGGGTRLEIKR
notes: also called parent antibody
As for B3, the binding result in assay [4] was “binds”.

B4: anti-TfR2 antibody (TfR2) (antibody, V domains shown)
VH: EVQLQQSGPELVKPGASVKMSCKASGYTFTSYVMHWVKQKPGQGLEWIGYVNPYNDDTKYNEKFRGKATLTSDKSSSTAYMELSSLTSEDSAVYYCARSYYYYSMDNWGQGTSVTVSS
VL: B3 VL with M21V, I32M, R38K, N52E, S75N, N91S, W95F, R102K
notes: also called parent antibody
B4: in [5], the binding result was “binds”.

B5: VH00/VL00 (antibody, V domains shown)
VH: QSVEESGGRLVTPGTPLTLTCTVSGFSLSSNAINWVRQAPGKGLEWIGYIAVSGNTYYASWAKGRFTISKASTTVDLKMTSPTAEDTGTYFCGKSNIWGPGTLVTVSL
VL: AQVLTQTTSPVSAAVGSTVTISCQSSQSVRTNKLAWFQQKPGQPPKRLIYSASTLDFGVPSRFSASGSGTQFTLTISDVQCDDAATYYCLGYFDCSIADCVAFGGGTEVVVK
notes: rabbit variable domains; also called VH00 with VL00 (rabbit antibody); parent rabbit antibody
Molecule B5 returned an EC50 in assay [1] of 0.0479 µg/mL.

B6: mAb 086 (antibody, V domains shown)
VH: B5 VH
VL: B5 VL
notes: recombinant rabbit IgG; also called rabbit antibody mAb 086
For the molecule B6, the EC50 in [6] is 0.0011 µg/mL; in assay [7] it was 0.266 µg/mL. In assay [8], the “selectivity against non-phosphorylated tau peptide” value is at least 100 fold. The binding result in assay [9] is “no binding”.

B7: TfR1-Bio (bispecific antibody, human IgG1, kappa)
heavy: not shown
light: QIVLTQSPAIMSASPGEKVTMTCSASSSIRYIHWYQQRPGTSPKRWIYDTSNLASGVPARFSGSGSGTSYSLTISSMEAEDAATYYCHQRNSYPWTFGGGTRLEIKRTVAAPSVFIFPPSDEQLKSGTASVVCLLNNFYPREAKVQWKVDNALQSGNSQESVTEQDSKDSTYSLSSTLTLSKADYEKHKVYACEVTHQGLSSPVTKSFNRGEC
notes: bivalent anti-TfR1 IgG with an anti-biotin scFv at each CH3 C-terminus; also called anti-TfR1 antibody-Bio
Turning to B7, in assay [10], the binding result is reported as “binds”.

B8: TfR2-Bio (bispecific antibody, human IgG1, kappa)
heavy: not shown
light: B7 light with M21V, I32M, R38K, N52E, S75N, N91S, W95F, R102K
notes: bivalent anti-TfR2 IgG with an anti-biotin scFv at each CH3 C-terminus; also called anti-TfR2-Bio
For B8, the binding result in assay [10] is “binds”.
